US20220049021A1

Each substance was assayed against T1, human FLT3 on AML5 cells (human) (UniProt P36888) (assay: cell-based or functional assay).
T1 sequence (looked up): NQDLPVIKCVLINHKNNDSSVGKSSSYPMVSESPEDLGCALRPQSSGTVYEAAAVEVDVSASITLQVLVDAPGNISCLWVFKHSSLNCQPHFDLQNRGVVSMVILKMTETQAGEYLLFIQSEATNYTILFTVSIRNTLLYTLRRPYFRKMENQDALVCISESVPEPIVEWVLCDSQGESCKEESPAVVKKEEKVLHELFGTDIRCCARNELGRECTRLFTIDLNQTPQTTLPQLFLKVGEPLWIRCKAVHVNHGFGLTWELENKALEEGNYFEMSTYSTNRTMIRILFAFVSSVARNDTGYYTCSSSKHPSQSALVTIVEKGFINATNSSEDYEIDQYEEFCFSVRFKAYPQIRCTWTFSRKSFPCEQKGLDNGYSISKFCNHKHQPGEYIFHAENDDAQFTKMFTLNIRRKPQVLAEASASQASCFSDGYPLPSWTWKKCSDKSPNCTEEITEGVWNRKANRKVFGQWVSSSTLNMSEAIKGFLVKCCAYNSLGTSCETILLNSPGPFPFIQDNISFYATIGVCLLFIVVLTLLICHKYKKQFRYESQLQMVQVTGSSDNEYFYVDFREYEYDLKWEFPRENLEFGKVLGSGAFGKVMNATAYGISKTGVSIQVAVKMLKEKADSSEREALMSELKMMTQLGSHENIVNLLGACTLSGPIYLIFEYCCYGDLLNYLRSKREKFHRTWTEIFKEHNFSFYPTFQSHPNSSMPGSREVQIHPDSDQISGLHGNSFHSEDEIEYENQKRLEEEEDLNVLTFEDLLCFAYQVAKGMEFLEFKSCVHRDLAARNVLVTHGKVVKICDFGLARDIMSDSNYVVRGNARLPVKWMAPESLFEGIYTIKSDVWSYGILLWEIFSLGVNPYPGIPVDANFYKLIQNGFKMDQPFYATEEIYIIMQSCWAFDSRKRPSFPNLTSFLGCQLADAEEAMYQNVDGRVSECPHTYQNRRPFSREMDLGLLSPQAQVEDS

Sequence of human FLT3-ligand (H8Y) human hingeless IgG1 fusion protein (SEQ ID NO:22) (Fc fusion) (chain): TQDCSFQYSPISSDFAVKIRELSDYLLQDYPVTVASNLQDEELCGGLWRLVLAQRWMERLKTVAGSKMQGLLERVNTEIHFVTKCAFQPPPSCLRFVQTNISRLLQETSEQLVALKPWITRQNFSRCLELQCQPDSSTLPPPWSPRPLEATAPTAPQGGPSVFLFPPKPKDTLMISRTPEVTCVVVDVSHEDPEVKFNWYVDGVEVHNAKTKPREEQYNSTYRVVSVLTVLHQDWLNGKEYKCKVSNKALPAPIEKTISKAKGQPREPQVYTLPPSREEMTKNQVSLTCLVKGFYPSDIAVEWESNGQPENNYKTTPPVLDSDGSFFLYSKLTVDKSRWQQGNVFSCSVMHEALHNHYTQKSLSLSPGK
Sequence of human FLT3-ligand human IgG1 fusion protein (SEQ ID NO:21) (Fc fusion) (chain): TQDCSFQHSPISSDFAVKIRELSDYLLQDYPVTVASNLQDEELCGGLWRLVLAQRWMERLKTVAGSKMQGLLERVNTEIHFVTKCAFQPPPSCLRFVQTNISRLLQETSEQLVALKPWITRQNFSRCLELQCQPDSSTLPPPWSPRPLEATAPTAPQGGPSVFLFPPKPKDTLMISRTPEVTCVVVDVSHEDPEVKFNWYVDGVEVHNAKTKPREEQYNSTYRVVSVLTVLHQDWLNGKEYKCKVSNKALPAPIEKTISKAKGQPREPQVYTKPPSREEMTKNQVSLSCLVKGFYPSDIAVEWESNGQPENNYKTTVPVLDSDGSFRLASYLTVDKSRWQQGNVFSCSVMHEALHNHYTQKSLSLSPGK

EC50 (nM), Inducing Proliferation of AML5 Cells	potency in AML5 proliferation against SEQ ID NO:1	Substance
0.014 nM	2.5 fold	human FLT3-ligand (H8Y) human hingeless IgG1 fusion protein (SEQ ID NO:22) (Fc fusion)
0.013 nM	2.5 fold	human FLT3-ligand (H8Y+K84E) human hingeless IgG1 fusion protein (SEQ ID NO:24) (Fc fusion)
0.013 nM	2.5 fold	human FLT3-ligand (K84E) human hingeless IgG1 fusion protein (SEQ ID NO:23) (Fc fusion)
0.035 nM		human FLT3-ligand human IgG1 fusion protein (SEQ ID NO:21) (Fc fusion)
